IntAct's records for PubMed 18826409

B1: Regulator of sigma D (Escherichia coli (strain K12)), P0AFX4 (parent)
chain: MLNQLDNLTERVRGSNKLVDRWLHVRKHLLVAYYNLVGIKPGKESYMRLNEKALDDFCQSLVDYLSAGHFSIYERILHKLEGNGQLARAAKIWPQLEANTQQIMDYYDSSLETAIDHDNYLEFQQVLSDIGEALEARFVLEDKLILLVLDAARVKHPA

Variants of: B1
Conditions: with rpod_ecoli rpoD

Variant | effect of a mutation on the interaction
MLNQLDNLTERVRESNKLVDRWLHVRKHLLVAYFNLVGIKPGKESYMRLNEKALDDFCQSLVDYLSAGHFSIYERILHKLEGNGQLARAAKIWPQLEANTQQIMDYYDSSLETAIDHDNYLEFQQVLSDIGEALEARFVLEDKLILLVLDAARVKHPA | increasing interaction strength
MLNQLDNLTERVRESNKLVDRWLHVRKHLLVAYYNLVGIKPGKESYMRLNEKALDDFCQSLVDYLSAGHFSIYERILHKLEGNGQLARAAKIWPQLEANTQQIMDYYDSSLETAIDHDNYLEFQQVLSDIGEALEARFVLEDKLILLVLDAARVKHPA | increasing interaction strength
MLNQLDNLTERVRGSNKLVDRWLHVRKHLLVAYFNLVGIKPGKESYMRLNEKALDDFCQSLVDYLSAGHFSIYERILHKLEGNGQLARAAKIWPQLEANTQQIMDYYDSSLETAIDHDNYLEFQQVLSDIGEALEARFVLEDKLILLVLDAARVKHPA | decreasing interaction strength

Variants of: B1
Conditions: with rpod_ecoli rpoD
Remark: another data set of the same source

Variant | effect of a mutation on the interaction
MLNQLDNLTERVRGSNKLVDRWLHVRKHLLVAYFNLVGIKPGKESYMRLNEKALDDFCQSLVDYLSAGHFSIYERILHKLEGNGQLARAAKIWPQLEANTQQIMDYYDSSLETAIDHDNYLEFQQVLSDIGEALEARFVLEDKLILLVLDAARVKHPA | increasing interaction strength
MLNQLDNLTERVRGSNKLVDRWLHVRKHLLVAYYNLVGIKPGKESYMRLNEKALDDFCQSLVDYLSAGHFSIYERILHKLEGNGQLARAAKIWPQLEANTQQIMDYYDSSLETAIDHDNYLEFQQVLSDIGEALEARFVLENKLILLVLDAARVKHPA | disrupting interaction strength
